Experimental data: article PMC8241846, “Structure and lipid dynamics in the maintenance of lipid asymmetry inner membrane complex of A. baumannii” (Communications Biology, 2021)

Experiments:
[1] = target: MlaD of the A. baumannii MlaBDEF complex (MlaBDEFab) (Acinetobacter baumannii) (UniProt V5V921); assay: cryo-EM structure; single-particle cryo-EM of the purified MlaBDEFab complex in DDM; 20 mM Hepes (pH 7.0), 150 mM NaCl, 0.025% (w/v) DDM; with AppNHp (3.9 Å, atomic model), also apo (~4.2 Å) and with ADP (~4.4 Å)
[2] = target: T1, MlaBDEFab (Acinetobacter baumannii, UniProt A0A4P2WWN2+V5V921+V5V9F4); assay: cryo-EM map, […] A (no model deposited); format: binding; conditions: protein mixed 1:1 with 20 mM nucleotide, pH 8.0, 0.025% DDM; same nucleotide site; EMD-11084 in Table 1
T1 construct: gene ttg2A; full mla operon expressed in E. coli BL21(DE3), Ni-NTA purified (tag not described), in DDM; C2 complex MlaF2-MlaE2-MlaD6-MlaB2 (about half of particles with one MlaB)

[3] = target: T1, MlaBDEFab; assay: cryo-EM structure, […] A; format: binding; conditions: Mg2+ seen in site; protein mixed 1:1 with 20 mM nucleotide, pH 8.0, 0.025% DDM; nucleotide site at MlaF/MlaE/MlaD interface (MlaF Lys55, Ser51, His211, Arg26); non-hydrolysable ATP analogue
[4] = target: MlaF of the A. baumannii MlaBDEF complex (MlaBDEFab) (Acinetobacter baumannii); assay: cryo-EM structure; single-particle cryo-EM of the purified MlaBDEFab complex in DDM; 20 mM Hepes (pH 7.0), 150 mM NaCl, 0.025% (w/v) DDM; with AppNHp (3.9 Å, atomic model), also apo (~4.2 Å) and with ADP (~4.4 Å)

## MlaD of the A. baumannii MlaBDEF complex (MlaBDEFab) (from UniProt V5V921 1-226) (natural protein)
[1]
  stoichiometry N: 6

## Nc1ncnc2c1ncn2[C@@H]1O[C@H](COP(=O)(O)OP(=O)(O)O)[C@@H](O)[C@H]1O [ADP]
[2]
  cryo-EM map, 4.43 A (no model deposited): confirms the presence of nucleotide in the AppNHp and ADP maps

## Nc1ncnc2c1ncn2[C@@H]1O[C@H](COP(=O)(O)OP(=O)(O)NP(=O)(O)O)[C@@H](O)[C@H]1O [AppNHp]
[3]
  cryo-EM structure, 3.92 A: we observed clear density of the nucleotide and magnesium, within the MlaF binding pocket

B1: MlaB of the A. baumannii MlaBDEF complex (MlaBDEFab) (natural protein)
chain: MVQYLNQELVVSGKIDFENAEQQYQAGLAIIKKQTSFPLIVDLKQLEHGNTLALAVLVQWLRQTPQKSGLHFKNVPEKMLKIIQACHLQEDLHLV
[4]
  percent of particles with MlaB bound to both MlaF: 50%
